Test results reported in IntAct's records for PubMed 24240280.

Assays:
sv2c_human SV2C [1] = biological target: T1, sv2c_human SV2C (UniProt Q496J9)
T1 sequence: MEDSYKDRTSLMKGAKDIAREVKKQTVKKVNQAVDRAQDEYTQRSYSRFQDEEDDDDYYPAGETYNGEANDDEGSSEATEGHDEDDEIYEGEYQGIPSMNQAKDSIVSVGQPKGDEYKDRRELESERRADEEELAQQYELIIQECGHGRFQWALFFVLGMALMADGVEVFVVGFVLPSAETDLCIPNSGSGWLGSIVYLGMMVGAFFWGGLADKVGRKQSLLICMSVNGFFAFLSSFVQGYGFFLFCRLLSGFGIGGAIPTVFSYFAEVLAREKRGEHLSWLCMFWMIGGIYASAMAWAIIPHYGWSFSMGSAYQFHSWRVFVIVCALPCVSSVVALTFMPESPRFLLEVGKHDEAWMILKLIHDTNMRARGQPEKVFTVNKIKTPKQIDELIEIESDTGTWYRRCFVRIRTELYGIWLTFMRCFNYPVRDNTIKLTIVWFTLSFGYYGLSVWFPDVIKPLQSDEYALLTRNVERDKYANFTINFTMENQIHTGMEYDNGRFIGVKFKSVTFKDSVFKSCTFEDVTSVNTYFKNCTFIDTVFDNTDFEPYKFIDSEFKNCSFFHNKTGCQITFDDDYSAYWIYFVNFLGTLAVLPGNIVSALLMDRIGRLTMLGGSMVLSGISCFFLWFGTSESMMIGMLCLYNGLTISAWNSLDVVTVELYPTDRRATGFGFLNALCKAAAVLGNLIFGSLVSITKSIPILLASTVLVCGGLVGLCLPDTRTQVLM

sv2c_human SV2C [2] = biological target: T1, sv2c_human SV2C; remark: listed apart in the source

Row | Substance | effect of a mutation on the interaction (sv2c_human SV2C [1]) | effect of a mutation on the interaction (sv2c_human SV2C [2])
1 | Botulinum neurotoxin type A (Clostridium botulinum) (from UniProt P0DPI0) R1156E | decreasing interaction strength | 
2 | Botulinum neurotoxin type A (Clostridium botulinum) (from UniProt P0DPI0) R1294A | decreasing interaction strength | 
3 | Botulinum neurotoxin type A (Clostridium botulinum) (from UniProt P0DPI0) T1145A;T1146A | disrupting interaction strength | decreasing interaction strength
